Reference: patent publication US20220153852A1 (IBIO, published 2022)

What was measured:
[1] = biological target: T1, recombinant cynomolgus monkey (cyno) CD25 (cynomolgus monkey, UniProt H6WS54 22-213); assay: ELISA on coated cyno CD25, OD450, curve fit
T1 sequence: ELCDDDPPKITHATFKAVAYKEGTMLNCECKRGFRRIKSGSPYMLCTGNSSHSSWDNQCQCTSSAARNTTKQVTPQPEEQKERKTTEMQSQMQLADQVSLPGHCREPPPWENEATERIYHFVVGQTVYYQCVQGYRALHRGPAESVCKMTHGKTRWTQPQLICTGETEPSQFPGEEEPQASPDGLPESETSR
Description: (§1) To test for binding to recombinant cynomolgus monkey (cyno) CD25, microtiter plates were coated with 80 ul of 1 ug/ml Cyno CD25 in 50 mM sodium carbonate pH 9.6) at 4° C. overnight. The next day, remove the protein from the wells and block with 200 ul PBS/0.1% BSA/0.05% tween20. The plate was incubated for 1 hour at room temperature. The antibodies starting at 25 nM and 3 fold serially were diluted in PBT buffer and added to the plate for incubation at RT for 1 hour. The plate was then washed and then 1:2500 dilution of HRP conjugate anti-Fab antibody was added. The plate was washed 5-10 times with PBS/tween20 to remove non-specific binders. TMB perxidase substrate and peroxidase solution were added and incubated for the time needed to develop with 80 uL of ELISA stop solution added at the end. OD measurements were then taken at […] using a plate reader (SpectraMax iD3 Plate Reader, Molecular Devices).
(§2) The ratio is indicative of a preference in binding to either cyno or human CD25.

[2] = biological target: T2, CD25 on CD25-expressing human cells (SUDHL-1, SR786, regulatory T cells) (human, UniProt P01589 22-272); assay: cell-based or functional assay
T2 sequence (looked up): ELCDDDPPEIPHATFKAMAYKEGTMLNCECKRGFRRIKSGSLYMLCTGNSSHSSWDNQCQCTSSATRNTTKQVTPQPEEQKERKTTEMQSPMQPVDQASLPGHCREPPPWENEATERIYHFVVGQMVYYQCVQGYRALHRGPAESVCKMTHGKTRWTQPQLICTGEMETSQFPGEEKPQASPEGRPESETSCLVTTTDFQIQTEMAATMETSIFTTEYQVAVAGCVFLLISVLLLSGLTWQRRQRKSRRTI

[3] = biological target: T3, human CD25 (ELISA antigen) (human, UniProt P01589 22-213, limits assumed); assay: ELISA on human CD25, OD450, curve fit
T3 construct: The ELISA protocol is described only for cyno CD25; the human antigen's construct is not described
T3 sequence (looked up): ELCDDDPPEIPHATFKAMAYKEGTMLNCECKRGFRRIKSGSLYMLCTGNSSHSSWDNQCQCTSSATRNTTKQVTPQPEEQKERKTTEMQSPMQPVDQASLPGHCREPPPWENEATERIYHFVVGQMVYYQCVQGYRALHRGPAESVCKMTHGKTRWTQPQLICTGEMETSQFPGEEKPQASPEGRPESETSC

[4] = biological target: T1, recombinant cynomolgus monkey (cyno) …; assay: ratio of the ELISA IC50 on cyno CD25 to that on human CD25
Description: as §1, §2

B1: D11 (original or parental) (antibody, V domains shown)
VH: QIQLQQPGAELVRPGVSLKISCKGSGYTFTDYAMHWVRQSHAKSLEWIGVISTYSGDAIYNQKFKGKATMTVDKSSSTAYLELARLTSDDSAIYYCARGVTFDYWGQGTTVTVSS
VL: DIQMTQTTSSLSASLGDRVTITCRASQDISNYLEWYQQKQGKSPQLLVYNAKTLAEGVPSRFSGSGSGTQFSLKINSLQPEDFGSYYCQHHYDTPYTFGGGTKLEIK
notes: also called parental D11; original D11
In the case of B1, the Top [1] is reported as 3.01, the “Treg ADCC EC50” value [2] is reported as 0.0135 µg/mL and the Top [3] is reported as 3.12. The Cyno/Human [4] was 1.3.

B2: hD11-H3-L2 (hD11-H3h-L2) (antibody, V domains shown)
VH: QVQLVQSGAEVKKPGASLKISCKGSGYTFTDYAMHWVRQAPGQGLEWIGVISTYSGDAIYAQKFQGRATMTVDTSTSTAYLELSSLRSEDTAVYYCARGVTFDYWGQGTTVTVSS
VL: DIQMTQSPSSLSASVGDRVTITCRASQDISNYLEWYQQKPGKAPKLLVYNAKTLAEGVPSRFSGSGSGTDFTLTISSLQPEDFGTYYCQHHYDTPYTFGQGTKLEIK
With B2 the “Treg ADCC EC50” value [2] was 0.0048 µg/mL.

B3: hD11-H1-L2 (antibody, V domains shown)
VH: QVQLVQSGAEVKKPGASVKVSCKASGYTFTDYAMHWVRQAPGQGLEWMGVISTYSGDAIYAQKFQGRVTMTRDTSTSTVYMELSSLRSEDTAVYYCARGVTFDYWGQGTTVTVSS
VL: DIQMTQSPSSLSASVGDRVTITCRASQDISNYLEWYQQKPGKAPKLLVYNAKTLAEGVPSRFSGSGSGTDFTLTISSLQPEDFGTYYCQHHYDTPYTFGQGTKLEIK
notes: Humanized variant of D11 (parental clone carries human IgG1)
For B3, the Top [1] was 3.04, the “Treg ADCC EC50” value [2] was 0.0467 µg/mL and the Top [3] was 3.1. For the same binder, the Cyno/Human [4] was 42.4.

B4: hD11-H2b-L1 (antibody, V domains shown)
VH: QVQLVQSGAEVKKPGASVKVSCKGSGYTFTDYAMHWVRQAPGQGLEWMGVISTYSGDAIYAQKFQGRVTMTVDKSTSTAYMELSSLRSEDTAVYYCARGVTFDYWGQGTTVTVSS
VL: DIQMTQSPSSLSASVGDRVTITCRASQDISNYLEWYQQKPGKAPKLLIYNAKTLAEGVPSRFSGSGSGTDFTLTISSLQPEDFATYYCQHHYDTPYTFGQGTKLEIK
For B4, the “Treg ADCC EC50” value [2] was 0.0089 µg/mL.

B5: hD11-H3-L1 (hD11-H3h-L1) (antibody, V domains shown)
VH: QVQLVQSGAEVKKPGASLKISCKGSGYTFTDYAMHWVRQAPGQGLEWIGVISTYSGDAIYAQKFQGRATMTVDTSTSTAYLELSSLRSEDTAVYYCARGVTFDYWGQGTTVTVSS
VL: DIQMTQSPSSLSASVGDRVTITCRASQDISNYLEWYQQKPGKAPKLLIYNAKTLAEGVPSRFSGSGSGTDFTLTISSLQPEDFATYYCQHHYDTPYTFGQGTKLEIK
With B5 the “Treg ADCC EC50” value [2] was 0.0683 µg/mL.

B6: hD11-H3b-L2 (antibody, V domains shown)
VH: QVQLVQSGAEVKKPGASLKISCKGSGYTFTDYAMHWVRQAPGQGLEWIGVISTYSGDAIYAQKFQGRATMTVDKSTSTAYLELSSLRSEDTAVYYCARGVTFDYWGQGTTVTVSS
VL: DIQMTQSPSSLSASVGDRVTITCRASQDISNYLEWYQQKPGKAPKLLVYNAKTLAEGVPSRFSGSGSGTDFTLTISSLQPEDFGTYYCQHHYDTPYTFGQGTKLEIK
With B6 the “Treg ADCC EC50” value [2] was 0.0077 µg/mL.

B7: 7G7B6 (antibody, V domains shown)
VH: EVQLVESGGDLVQPRGSLKLSCAASGFTFSSYGMSWVRQTPDKRLELVATINGYGDTTYYPDSVKGRFTISRDNAKNTLYLQMSSLKSEDTAMYFCARDRDYGNSYYYALDYWGQGTSVTVSS
VL: QIVLSQSPAILSASPGERVTMTCRASSSVSFMHWLQQKPGSSPKPWIYATSNLASGVSARFSGSGSGTSYSLTITRVEAEDAATYYCQQWSSNPPAFGGGTKLEIK
For B7, the Top [1] was 2.96, the “Treg ADCC EC50” value [2] was 0.0194 µg/mL and the Top [3] was 3.12. It also gave a Cyno/Human [4] of 1.8.

B8: hD11-H2-L1 (antibody, V domains shown)
VH: QVQLVQSGAEVKKPGASVKVSCKGSGYTFTDYAMHWVRQAPGQGLEWMGVISTYSGDAIYAQKFQGRVTMTVDTSTSTAYMELSSLRSEDTAVYYCARGVTFDYWGQGTTVTVSS
VL: DIQMTQSPSSLSASVGDRVTITCRASQDISNYLEWYQQKPGKAPKLLIYNAKTLAEGVPSRFSGSGSGTDFTLTISSLQPEDFATYYCQHHYDTPYTFGQGTKLEIK
In the case of B8, the “Treg ADCC EC50” value [2] is reported as 0.0178 µg/mL.

B9: hD11-H1-L1 (antibody, V domains shown)
VH: QVQLVQSGAEVKKPGASVKVSCKASGYTFTDYAMHWVRQAPGQGLEWMGVISTYSGDAIYAQKFQGRVTMTRDTSTSTVYMELSSLRSEDTAVYYCARGVTFDYWGQGTTVTVSS
VL: DIQMTQSPSSLSASVGDRVTITCRASQDISNYLEWYQQKPGKAPKLLIYNAKTLAEGVPSRFSGSGSGTDFTLTISSLQPEDFATYYCQHHYDTPYTFGQGTKLEIK
B9 was tested, and the “Treg ADCC EC50” value [2] was 0.0206 µg/mL.

B10: hD11-H2-L2 (antibody, V domains shown)
VH: QVQLVQSGAEVKKPGASVKVSCKGSGYTFTDYAMHWVRQAPGQGLEWMGVISTYSGDAIYAQKFQGRVTMTVDTSTSTAYMELSSLRSEDTAVYYCARGVTFDYWGQGTTVTVSS
VL: DIQMTQSPSSLSASVGDRVTITCRASQDISNYLEWYQQKPGKAPKLLVYNAKTLAEGVPSRFSGSGSGTDFTLTISSLQPEDFGTYYCQHHYDTPYTFGQGTKLEIK
In the case of B10, the “Treg ADCC EC50” value [2] is reported as 0.0133 µg/mL.

B11: hD11-H2b-L2 (antibody, V domains shown)
VH: QVQLVQSGAEVKKPGASVKVSCKGSGYTFTDYAMHWVRQAPGQGLEWMGVISTYSGDAIYAQKFQGRVTMTVDKSTSTAYMELSSLRSEDTAVYYCARGVTFDYWGQGTTVTVSS
VL: DIQMTQSPSSLSASVGDRVTITCRASQDISNYLEWYQQKPGKAPKLLVYNAKTLAEGVPSRFSGSGSGTDFTLTISSLQPEDFGTYYCQHHYDTPYTFGQGTKLEIK
For B11, the “Treg ADCC EC50” value [2] was 0.0145 µg/mL.

B12: hD11-H3b-L1 (antibody, V domains shown)
VH: QVQLVQSGAEVKKPGASLKISCKGSGYTFTDYAMHWVRQAPGQGLEWIGVISTYSGDAIYAQKFQGRATMTVDKSTSTAYLELSSLRSEDTAVYYCARGVTFDYWGQGTTVTVSS
VL: DIQMTQSPSSLSASVGDRVTITCRASQDISNYLEWYQQKPGKAPKLLIYNAKTLAEGVPSRFSGSGSGTDFTLTISSLQPEDFATYYCQHHYDTPYTFGQGTKLEIK
In the case of B12, the “Treg ADCC EC50” value [2] is reported as 0.0317 µg/mL.
